# Assay results from the supplement of paper PMC10567573.
# B1: MATN2 (parent)
# chain: VNVPGSFVCQCYSGYALAEDGKRC
# B2: SOAT1 (parent)
# chain: VYYIFERLCAPLFRNIKQEPFSAR
# Variants of: B1
# Assay: protein stability index of a GFP-peptide fusion (GPS, HEK-293T) (PSI 1-6); higher = more stable
# Details: c terminus: a fixed tail appended
# 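Also: lentivirally expressed fusions sorted by FACS into six bins by GFP to DsRed ratio, PSI derived from sequencing read proportions per bin multiplied by bin number.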
row,Variant,protein stability index
1,VNVPGSFVEQCYSGYALAEDGKRC,3.33
2,VNVPGSFVKQCYSGYALAEDGKRC,3.08
3,VNVPGSFVGQCYSGYALAEDGKRC,2.8
4,VNVPGSFVHQCYSGYALAEDGKRC,2.95
5,VNVPGSFVIQCYSGYALAEDGKRC,1.5
6,VNVPGSFVFQCYSGYALAEDGKRC,2.54
7,VNVPGSFVDQCYSGYALAEDGKRC,4.36
8,VNVPGSFVAQCYSGYALAEDGKRC,1.81
9,VNVLGSFVCQCYSGYALAEDGKRC,1.99
10,VNVTGSFVCQCYSGYALAEDGKRC,1
11,VNVAGSFVCQCYSGYALAEDGKRC,1.87
12,VNVSGSFVCQCYSGYALAEDGKRC,1.34
13,VNVQGSFVCQCYSGYALAEDGKRC,2.97
14,VNVRGSFVCQCYSGYALAEDGKRC,1.33
15,VNVMGSFVCQCYSGYALAEDGKRC,2.1
16,VNVFGSFVCQCYSGYALAEDGKRC,1.36
17,VNVEGSFVCQCYSGYALAEDGKRC,2.46
18,VNVIGSFVCQCYSGYALAEDGKRC,1.04
19,VNVDGSFVCQCYSGYALAEDGKRC,1.91
20,VNVHGSFVCQCYSGYALAEDGKRC,1.47
21,VNVGGSFVCQCYSGYALAEDGKRC,1.86
22,VNVCGSFVCQCYSGYALAEDGKRC,2.07
23,VNVNGSFVCQCYSGYALAEDGKRC,1.94
24,VNVKGSFVCQCYSGYALAEDGKRC,1.92
25,VNVVGSFVCQCYSGYALAEDGKRC,2.28

row,Variant,protein stability index
1,VHVPGSFVCQCYSGYALAEDGKRC,1.97
2,VKVPGSFVCQCYSGYALAEDGKRC,1.38
3,VCVPGSFVCQCYSGYALAEDGKRC,2.12
4,VWVPGSFVCQCYSGYALAEDGKRC,1.79
5,VQVPGSFVCQCYSGYALAEDGKRC,2.28
6,VTVPGSFVCQCYSGYALAEDGKRC,2.35
7,VMVPGSFVCQCYSGYALAEDGKRC,1.71
8,VFVPGSFVCQCYSGYALAEDGKRC,2.64
9,VLVPGSFVCQCYSGYALAEDGKRC,2.28
10,VYVPGSFVCQCYSGYALAEDGKRC,1.41
11,VEVPGSFVCQCYSGYALAEDGKRC,3.38
12,VAVPGSFVCQCYSGYALAEDGKRC,1.9
13,VPVPGSFVCQCYSGYALAEDGKRC,2.75
14,VVVPGSFVCQCYSGYALAEDGKRC,1.25
15,VDVPGSFVCQCYSGYALAEDGKRC,2.19
16,VIVPGSFVCQCYSGYALAEDGKRC,1.75
17,VGVPGSFVCQCYSGYALAEDGKRC,1.89
18,VSVPGSFVCQCYSGYALAEDGKRC,1.82
19,VNVPHSFVCQCYSGYALAEDGKRC,2.6
20,VNVPWSFVCQCYSGYALAEDGKRC,4.67
21,VNVPQSFVCQCYSGYALAEDGKRC,2.14
22,VNVPASFVCQCYSGYALAEDGKRC,1.67
23,VNVPRSFVCQCYSGYALAEDGKRC,2.17
24,VNVPSSFVCQCYSGYALAEDGKRC,1.91
25,VNVPVSFVCQCYSGYALAEDGKRC,1.17

row,Variant,protein stability index
1,VNVPMSFVCQCYSGYALAEDGKRC,1.47
2,VNVPYSFVCQCYSGYALAEDGKRC,1.2
3,VNVPISFVCQCYSGYALAEDGKRC,1.45
4,VNVPLSFVCQCYSGYALAEDGKRC,1.06
5,VNVPCSFVCQCYSGYALAEDGKRC,2.68
6,VNVPESFVCQCYSGYALAEDGKRC,1.79
7,VNVPTSFVCQCYSGYALAEDGKRC,1.87
8,VNVPDSFVCQCYSGYALAEDGKRC,2.06
9,VNVPPSFVCQCYSGYALAEDGKRC,2.31
10,VNVPNSFVCQCYSGYALAEDGKRC,1.75
11,SNVPGSFVCQCYSGYALAEDGKRC,3.31
12,YNVPGSFVCQCYSGYALAEDGKRC,2.85
13,KNVPGSFVCQCYSGYALAEDGKRC,1.92
14,GNVPGSFVCQCYSGYALAEDGKRC,2.6
15,FNVPGSFVCQCYSGYALAEDGKRC,3.08
16,CNVPGSFVCQCYSGYALAEDGKRC,2.15
17,NNVPGSFVCQCYSGYALAEDGKRC,2.06
18,WNVPGSFVCQCYSGYALAEDGKRC,2.91
19,MNVPGSFVCQCYSGYALAEDGKRC,1.87
20,HNVPGSFVCQCYSGYALAEDGKRC,1.96
21,PNVPGSFVCQCYSGYALAEDGKRC,2.86
22,QNVPGSFVCQCYSGYALAEDGKRC,2.01
23,LNVPGSFVCQCYSGYALAEDGKRC,2.17
24,TNVPGSFVCQCYSGYALAEDGKRC,2.36
25,ANVPGSFVCQCYSGYALAEDGKRC,2.14

row,Variant,protein stability index
1,DNVPGSFVCQCYSGYALAEDGKRC,2.6
2,ENVPGSFVCQCYSGYALAEDGKRC,2.59
3,INVPGSFVCQCYSGYALAEDGKRC,2.43
4,RNVPGSFVCQCYSGYALAEDGKRC,1.37
5,VNVPGSLVCQCYSGYALAEDGKRC,2.07
6,VNVPGSSVCQCYSGYALAEDGKRC,2.62
7,VNVPGSMVCQCYSGYALAEDGKRC,2.7
8,VNVPGSHVCQCYSGYALAEDGKRC,3.02
9,VNVPGSNVCQCYSGYALAEDGKRC,1.06
10,VNVPGSDVCQCYSGYALAEDGKRC,2.56
11,VNVPGSYVCQCYSGYALAEDGKRC,2.01
12,VNVPGSEVCQCYSGYALAEDGKRC,2.94
13,VNVPGSGVCQCYSGYALAEDGKRC,3.34
14,VNVPGSCVCQCYSGYALAEDGKRC,2.28
15,VNVPGSTVCQCYSGYALAEDGKRC,2.88
16,VNVPGSKVCQCYSGYALAEDGKRC,2.98
17,VNVPGSWVCQCYSGYALAEDGKRC,2.48
18,VNVPGSRVCQCYSGYALAEDGKRC,3.21
19,VNVPGSQVCQCYSGYALAEDGKRC,2.14
20,VNVPGSIVCQCYSGYALAEDGKRC,1.92
21,VNVPGSPVCQCYSGYALAEDGKRC,3.13
22,VNVPGSVVCQCYSGYALAEDGKRC,2.19
23,VNVPGSAVCQCYSGYALAEDGKRC,2.85
24,VNVPGSFFCQCYSGYALAEDGKRC,1.79
25,VNVPGSFSCQCYSGYALAEDGKRC,3.19

row,Variant,protein stability index
1,VNVPGSFMCQCYSGYALAEDGKRC,2.79
2,VNVPGSFCCQCYSGYALAEDGKRC,1.27
3,VNVPGSFDCQCYSGYALAEDGKRC,3.89
4,VNVPGSFLCQCYSGYALAEDGKRC,2.35
5,VNVPGSFKCQCYSGYALAEDGKRC,2.74
6,VNVPGSFACQCYSGYALAEDGKRC,2.16
7,VNVPGSFGCQCYSGYALAEDGKRC,1.92
8,VNVPGSFTCQCYSGYALAEDGKRC,1.96
9,VNVPGSFYCQCYSGYALAEDGKRC,3.01
10,VNVPGSFWCQCYSGYALAEDGKRC,3.21
11,VNVPGSFPCQCYSGYALAEDGKRC,2.28
12,VNVPGSFICQCYSGYALAEDGKRC,2.21
13,VNVPGSFQCQCYSGYALAEDGKRC,2.51
14,VNVPGSFHCQCYSGYALAEDGKRC,2.34
15,VNVPGSFNCQCYSGYALAEDGKRC,2.51
16,VNVPGSFECQCYSGYALAEDGKRC,2.53
17,VNTPGSFVCQCYSGYALAEDGKRC,2.39
18,VNRPGSFVCQCYSGYALAEDGKRC,2.05
19,VNIPGSFVCQCYSGYALAEDGKRC,1.23
20,VNCPGSFVCQCYSGYALAEDGKRC,1.08
21,VNEPGSFVCQCYSGYALAEDGKRC,1.19
22,VNDPGSFVCQCYSGYALAEDGKRC,2.11
23,VNHPGSFVCQCYSGYALAEDGKRC,1.81
24,VNNPGSFVCQCYSGYALAEDGKRC,1.73
25,VNFPGSFVCQCYSGYALAEDGKRC,1.69

row,Variant,protein stability index
1,VNQPGSFVCQCYSGYALAEDGKRC,2.26
2,VNPPGSFVCQCYSGYALAEDGKRC,2.08
3,VNYPGSFVCQCYSGYALAEDGKRC,2.52
4,VNKPGSFVCQCYSGYALAEDGKRC,2.82
5,VNMPGSFVCQCYSGYALAEDGKRC,2.21
6,VNAPGSFVCQCYSGYALAEDGKRC,1.49
7,VNSPGSFVCQCYSGYALAEDGKRC,2.16
8,VNLPGSFVCQCYSGYALAEDGKRC,2.35
9,VNVPGDFVCQCYSGYALAEDGKRC,2.97
10,VNVPGWFVCQCYSGYALAEDGKRC,2.04
11,VNVPGGFVCQCYSGYALAEDGKRC,1.47
12,VNVPGTFVCQCYSGYALAEDGKRC,2.12
13,VNVPGYFVCQCYSGYALAEDGKRC,1.87
14,VNVPGVFVCQCYSGYALAEDGKRC,1.84
15,VNVPGHFVCQCYSGYALAEDGKRC,2.27
16,VNVPGEFVCQCYSGYALAEDGKRC,2.67
17,VNVPGNFVCQCYSGYALAEDGKRC,1.43
18,VNVPGRFVCQCYSGYALAEDGKRC,3.39
19,VNVPGQFVCQCYSGYALAEDGKRC,1.81
20,VNVPGCFVCQCYSGYALAEDGKRC,2.05
21,VNVPGFFVCQCYSGYALAEDGKRC,3.53
22,VNVPGKFVCQCYSGYALAEDGKRC,1.89

# Variants of: B2
# Assay: as above
# Details: c terminus: a fixed tail appended
row,Variant,protein stability index
1,VYYIFERLCAPLFRNIKQEPFIAR,3.73
2,VYYIFERLCAPLFRNIKQEPFWAR,2.91
3,VYYIFERLCAPLFRNIKQEPFEAR,2.61
4,VYYIFERLCAPLFRNIKQEPFAAR,2.65
5,VYYIFERLCAPLFRNIKQEPFDAR,2.88
6,VYYIFERLCAPLFRNIKQEPFGAR,2.8
7,VYYIFERLCAPLFRNIKQEPFYAR,3.56
8,VYYIFERLCAPLFRNIKQEPFKAR,1.96
9,VYYIFERLCAPLFRNIKQEPFHAR,1.92
10,VYYIFERLCAPLFRNIKQEPFTAR,2.36
11,VYYIFERLCAPLFRNIKQEPFMAR,3.1
12,VYYIFERLCAPLFRNIKQEPFFAR,2.66
13,VYYIFERLCAPLFRNIKQEPFQAR,1.46
14,VYYIFERLCAPLFRNIKQEPFNAR,2.3
15,VYYIFERLCAPLFRNIKQEPFSAD,3.13
16,VYYIFERLCAPLFRNIKQEPFSAH,2.48
17,VYYIFERLCAPLFRNIKQEPFSAM,2.64
18,VYYIFERLCAPLFRNIKQEPFSAV,2.57
19,VYYIFERLCAPLFRNIKQEPFSAL,2.79
20,VYYIFERLCAPLFRNIKQEPFSAY,1.88
21,VYYIFERLCAPLFRNIKQEPFSAN,4.22

row,Variant,protein stability index
1,VYYIFERLCAPLFRNIKQEPFSAK,2.42
2,VYYIFERLCAPLFRNIKQEPFSAA,2.27
3,VYYIFERLCAPLFRNIKQEPFSAI,2.73
4,VYYIFERLCAPLFRNIKQEPFSAE,3.4
5,VYYIFERLCAPLFRNIKQEPFSNR,2.53
6,VYYIFERLCAPLFRNIKQEPFSYR,3.86
7,VYYIFERLCAPLFRNIKQEPFSKR,2.41
8,VYYIFERLCAPLFRNIKQEPFSWR,3.89
9,VYYIFERLCAPLFRNIKQEPFSQR,2.02
10,VYYIFERLCAPLFRNIKQEPFSCR,1.65
11,VYYIFERLCAPLFRNIKQEPFSPR,2.21
12,VYYIFERLCAPLFRNIKQEPFSSR,2.8
13,VYYIFERLCAPLFRNIKQEPFSTR,1.42
14,VYYIFERLCAPLFRNIKQEPFSIR,2.1
15,VYYIFERLCAPLFRNIKQEPFSRR,1.9
16,VYYIFERLCAPLFRNIKQEPFSLR,2.55
17,VYYIFERLCAPLFRNIKQEPVSAR,2.97
18,VYYIFERLCAPLFRNIKQEPTSAR,2.7
19,VYYIFERLCAPLFRNIKQEPWSAR,3.02
20,VYYIFERLCAPLFRNIKQEPYSAR,2.9
